B1: fluorescein-labeled CHD^Max-2 (designed binder)
chain 1: LREKIATLQWCIEELRK
chain 2: LEARIETHQWRIRELCE
modifications: bridge I:11-II:16; not fully specified (bridges); also: fluorescein label, chain and position not given here
B2: fluorescein-labeled CHD^Max-1 (cross-linked helix dimer derived from MAX) (designed binder)
chain 1: LREKIATLQWCIEELRK
chain 2: LRRKNETHQWEIEELC
modifications: bridge I:11-II:16; not fully specified (bridges); also: fluorescein label, chain and position not given here
B3: fluorescein-labeled CHD^Max-3 (negative control) (designed binder)
chain 1: LREKAATLQWCIEELRK
chain 2: LRRKAETAQWEIEELC
modifications: bridge I:11-II:16; not fully specified (bridges); also: fluorescein label, chain and position not given here

Positions of bridges follow the written chain, without caps; N, C: chain ends. Chains are numbered I, II in the order given. No end group written: not given here.

This experiment deals with T1, recombinant human MYC^353–437 protein (human).
T1 construct: MYC, human, residues 353-437; Aggregates above 5 μM; also called His6-MYC^353–437; source: recombinant
Nature of the experiment: fluorescence polarisation; fluorescein-labeled CHDs with His6-MYC^353–437, His6-MAX or the MYC/MAX complex; MYC up to 5 μM (aggregation above). Particulars: both partners purified. Background: Polarisation of emitted light reports the rotation of a fluorescent probe.
The term Kd denotes the equilibrium constant for the complex coming apart. For the molecule B1, the Kd turned out to be 880 ± 53 nM.
Regarding B2, the Kd amounted to 350 ± 17 nM.
The value for B3 was > 5000 nM.

Source of the values: publication PMC12022973, “Proteomimetic Strategy for the Modulation of Intrinsically Disordered Protein MYC” (Journal of the American Chemical Society, 2025).
